Values quoted from earlier work in patent JP2018508186A, “Il−17a結合ポリペプチド” (アフィボディ アクティエボラーグ, priority 2015, dated 2016).

How the values were obtained:
IL-17A [1] = molecular target: T1, IL-17A (Homo sapiens, UniProt Q16552); conditions: from WO2006/013107, WO2012/125680, WO2007/070750; read-out: KD for IL-17A, reported
IL-17A [2] = molecular target: T1, IL-17A; conditions: from WO2006/013107 and WO2012/125680; read-out: IC50, hIL-6 production neutralising activity, reported

T1 sequence (Q16552 24-155): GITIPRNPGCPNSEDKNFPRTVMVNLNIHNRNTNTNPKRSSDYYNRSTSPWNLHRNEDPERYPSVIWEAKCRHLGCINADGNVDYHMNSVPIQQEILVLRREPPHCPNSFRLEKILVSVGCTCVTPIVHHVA

Row | Substance | Kd (IL-17A [1]) [nM] | IC50 (IL-17A [2]) [nM]
1 | イキセキズマブ: anti-IL-17A monoclonal antibody | 0.002 | 
2 | セクキヌマブ: anti-IL-17A monoclonal antibody | 0.122 | 2.1 ± 0.1
